From publication PMC9352680, “A comprehensive thermodynamic model for RNA binding by the Saccharomyces cerevisiae Pumilio protein PUF4”

T1: PUF4 RNA-binding domain (Saccharomyces cerevisiae, UniProt P25339 537-888)
T1 sequence: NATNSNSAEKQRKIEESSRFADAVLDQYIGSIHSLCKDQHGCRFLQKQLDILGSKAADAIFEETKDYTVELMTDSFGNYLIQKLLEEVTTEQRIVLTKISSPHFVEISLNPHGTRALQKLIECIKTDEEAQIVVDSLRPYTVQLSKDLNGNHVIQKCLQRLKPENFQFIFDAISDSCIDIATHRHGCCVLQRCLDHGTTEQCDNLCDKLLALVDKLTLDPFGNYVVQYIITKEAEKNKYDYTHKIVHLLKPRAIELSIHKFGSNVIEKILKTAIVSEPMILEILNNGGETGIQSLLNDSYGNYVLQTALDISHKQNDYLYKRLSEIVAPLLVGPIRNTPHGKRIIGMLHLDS

B1: Ic_S1_P5E.1_K5.1_C5.1_H5.1_A5.1_[T5A]_[T6A]_[A7T]_F5.1_[A10T]_T5.1 (ssRNA)
RNA: UCUCUUUGUAAAUUUUUCUCUU
B2: Ib_S1_P3E.1_K3.1_C3.1_H3.1_[G2C]_[T3G]_A3.1_F3.1_T3.1 (ssRNA)
RNA: UCUCUUUCGAUAUAUCUCUU
B3: Ic_S1_P5E.1_K5.1_C5.1_H5.1_A5.1_[T5C]_[T6C]_F5.1_[T8G]_[A10C]_T5.1 (ssRNA)
RNA: UCUCUUUGUACCAGUCUCUCUU
B4: Ic_S1_P5E.1_K5.1_C5.1_H5.1_A5.1_[T5A]_[T6G]_[A7C]_F5.1_[T9C]_[A10C]_T5.1 (ssRNA)
RNA: UCUCUUUGUAAGCUCCUCUCUU
B5: Ic_S1_P5E.1_K5.1_C5.1_H5.1_A5.1_[T5C]_[T6A]_[A7G]_F5.1_[T9C]_[A10C]_T5.1 (ssRNA)
RNA: UCUCUUUGUACAGUCCUCUCUU
B6: Ib_S1_P3E.1_K3.1_C3.1_H3.1_[G2T]_[T3C]_A3.1_F3.1_T3.1 (ssRNA)
RNA: UCUCUUUUCAUAUAUCUCUU
B7: Ic_S1_P5E.1_K5.1_C5.1_H5.1_A5.1_[T5A]_[T6A]_[A7T]_F5.1_[T9G]_[A10T]_T5.1 (ssRNA)
RNA: UCUCUUUGUAAAUUGUUCUCUU
B8: Ic_S1_P5E.1_K5.1_C5.1_H5.1_A5.1_[A7C]_F5.1_[T8G]_[T9G]_[A10T]_T5.1 (ssRNA)
RNA: UCUCUUUGUAUUCGGUUCUCUU
B9: Ic_S1_P5E.1_K5.1_C5.1_H5.1_A5.1_[T6A]_[A7G]_F5.1_[T8C]_[T9C]_[A10T]_T5.1 (ssRNA)
RNA: UCUCUUUGUAUAGCCUUCUCUU
B10: Ic_S1_P5E.1_K5.1_C5.1_H5.1_A5.1_[T5C]_[T6C]_[A7G]_F5.1_[T8G]_[T9C]_[A10C]_T5.1 (ssRNA)
RNA: UCUCUUUGUACCGGCCUCUCUU
B11: Ic_S1_P5E.1_K5.1_C5.1_H5.1_A5.1_[T6C]_[A7G]_F5.1_[T9A]_[A10C]_T5.1 (ssRNA)
RNA: UCUCUUUGUAUCGUACUCUCUU
B12: Ic_S1_P5E.1_K5.1_C5.1_H5.1_A5.1_[A7T]_F5.1_[T8G]_[T9C]_[A10T]_T5.1 (ssRNA)
RNA: UCUCUUUGUAUUUGCUUCUCUU
B13: Ic_S1_P5E.1_K5.1_C5.1_H5.1_A5.1_[T6G]_[A7G]_F5.1_[A10G]_T5.1 (ssRNA)
RNA: UCUCUUUGUAUGGUUGUCUCUU
B14: Ib_S1_P3E.1_K3.1_C3.1_H3.1_[G2C]_[T3C]_A3.1_F3.1_T3.1 (ssRNA)
RNA: UCUCUUUCCAUAUAUCUCUU
B15: Ic_S1_P5E.1_K5.1_C5.1_H5.1_A5.1_[T5C]_[T6C]_F5.1_[T9G]_T5.1 (ssRNA)
RNA: UCUCUUUGUACCAUGAUCUCUU
B16: Ic_S1_P5E.1_K5.1_C5.1_H5.1_A5.1_[T5G]_[A7T]_F5.1_[T8C]_[T9C]_[A10C]_T5.1 (ssRNA)
RNA: UCUCUUUGUAGUUCCCUCUCUU
B17: Ic_S1_P5E.1_K5.1_C5.1_H5.1_A5.1_[T5C]_[A7T]_F5.1_[T8C]_[T9C]_T5.1 (ssRNA)
RNA: UCUCUUUGUACUUCCAUCUCUU
B18: Ic_S1_P5E.1_K5.1_C5.1_H5.1_A5.1_[T6G]_[A7G]_F5.1_[A10T]_T5.1 (ssRNA)
RNA: UCUCUUUGUAUGGUUUUCUCUU
B19: Ic_S1_P5E.1_K5.1_C5.1_H5.1_A5.1_[T5C]_[T6A]_[A7C]_F5.1_[T9C]_[A10C]_T5.1 (ssRNA)
RNA: UCUCUUUGUACACUCCUCUCUU
B20: Ic_S1_P5E.1_K5.1_C5.1_H5.1_A5.1_[T5G]_[T6C]_F5.1_[T9C]_T5.1 (ssRNA)
RNA: UCUCUUUGUAGCAUCAUCUCUU
B21: Ic_S1_P5E.1_K5.1_C5.1_H5.1_A5.1_[T5C]_[T6G]_[A7G]_F5.1_[T8C]_[A10G]_T5.1 (ssRNA)
RNA: UCUCUUUGUACGGCUGUCUCUU
B22: Ic_S1_P5E.1_K5.1_C5.1_H5.1_A5.1_[T5C]_[T6C]_[A7C]_F5.1_[T8A]_[A10C]_T5.1 (ssRNA)
RNA: UCUCUUUGUACCCAUCUCUCUU
B23: Ic_S1_P5E.1_K5.1_C5.1_H5.1_A5.1_[T5C]_[A7C]_F5.1_[T9G]_[A10T]_T5.1 (ssRNA)
RNA: UCUCUUUGUACUCUGUUCUCUU
B24: Ic_S1_P5E.1_K5.1_C5.1_H5.1_A5.1_[T5C]_[T6A]_F5.1_[T8A]_[T9A]_[A10T]_T5.1 (ssRNA)
RNA: UCUCUUUGUACAAAAUUCUCUU
B25: Ic_S1_P5E.1_K5.1_C5.1_H5.1_A5.1_F5.1_[T8C]_[T9C]_[A10T]_T5.1 (ssRNA)
RNA: UCUCUUUGUAUUACCUUCUCUU
B26: Ic_S1_P5E.1_K5.1_C5.1_H5.1_A5.1_[T6G]_[A7G]_F5.1_[T9A]_[A10T]_T5.1 (ssRNA)
RNA: UCUCUUUGUAUGGUAUUCUCUU
B27: Ic_S1_P5E.1_K5.1_C5.1_H5.1_A5.1_[T5C]_[T6A]_[A7C]_F5.1_[T8G]_[T9C]_[A10C]_T5.1 (ssRNA)
RNA: UCUCUUUGUACACGCCUCUCUU
B28: Ic_S1_P5E.1_K5.1_C5.1_H5.1_A5.1_[T6A]_F5.1_[T8C]_[T9G]_[A10T]_T5.1 (ssRNA)
RNA: UCUCUUUGUAUAACGUUCUCUU
B29: Ic_S1_P5E.1_K5.1_C5.1_H5.1_A5.1_[T5A]_[T6C]_[A7T]_F5.1_[T8C]_[T9G]_[A10G]_T5.1 (ssRNA)
RNA: UCUCUUUGUAACUCGGUCUCUU
B30: Ic_S1_P5E.1_K5.1_C5.1_H5.1_A5.1_[T6G]_[A7T]_F5.1_[T8G]_[T9G]_[A10T]_T5.1 (ssRNA)
RNA: UCUCUUUGUAUGUGGUUCUCUU
B31: Ib_S1_P3E.1_K3.1_C3.1_H3.1_[G2C]_[T3A]_A3.1_F3.1_T3.1 (ssRNA)
RNA: UCUCUUUCAAUAUAUCUCUU
B32: Ic_S1_P5E.1_K5.1_C5.1_H5.1_A5.1_[T6G]_[A7C]_F5.1_[T8A]_T5.1 (ssRNA)
RNA: UCUCUUUGUAUGCAUAUCUCUU

Target: T1, PUF4 RNA-binding domain
Assay: Mg; RNA-MaP; 20 mM Na-HEPES pH 7.4, 30 mM KOAc, 0.75 mM MgCl2, 0.1% Tween-20, 5% glycerol, 0.1 mg/mL BSA, 2 mM DTT; 25 C; 0.0125-409.6 nM protein
Settings: tags: N-His6-TEV cleaved; C-SNAP kept, Cy3B-labelled; label: tethered on chip by stalled RNA polymerase

First: B1
Second: B2
The Kd of the first is lower: 22.4 nM for the first, over 2300 nM for the second. The first binds more tightly here.

Compared with B3, B4 is 4.1-fold higher in Kd: 363 nM for the first, 1500 nM for the second. The first binds more tightly here.

Compared with B5, B6 is higher in Kd: 13.5 nM for the first, over 2300 nM for the second.

Going from B7 to B8, the Kd rises from 11.5 nM to 578 nM (50-fold).

Compared with B9, B10 is higher in Kd: 114 nM for the first, over 2300 nM for the second. The first binds more tightly here.

Going from B11 to B12, the Kd rises from 13.9 nM to 324 nM (23-fold). The first binds more tightly here.

Going from B13 to B14, the Kd rises from 717 nM to over 2300 nM. The first binds more tightly here.

First: B15
Second: B16
The Kd of the first is 210-fold lower: 8.03 nM for the first, 1650 nM for the second. The first binds more tightly here.

First: B17
Second: B18
The Kd of the first is 4.2-fold higher: 666 nM for the first, 159 nM for the second. The second binds more tightly here.

Going from B19 to B20, the Kd rises from 7.65 nM to 287 nM (38-fold). The first binds more tightly here.

First: B21
Second: B22
The Kd of the first is 3.6-fold higher: 2200 nM for the first, 603 nM for the second.

B23 and B24 are within 1.5-fold of each other in Kd: 21.5 nM for the first, 30.9 nM for the second.

First: B25
Second: B26
The Kd of the first is 37-fold higher: 496 nM for the first, 13.3 nM for the second. The second binds more tightly here.

Going from B27 to B28, the Kd falls from 394 nM to 34.4 nM (11-fold).

First: B29
Second: B30
The Kd of the first is higher: over 2300 nM for the first, 421 nM for the second. The second binds more tightly here.

Going from B31 to B32, the Kd falls from over 2300 nM to 36 nM. The second binds more tightly here.
